# Results: the nanobody polyreactivity screen of Harvey et al. (2022)
# Assay: yeast display, Sf9 membrane polyspecificity reagent, FACS + sequencing; frameworks hold sequencing errors
# Method in brief: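 Genes from sorted yeast were amplified by colony PCR, read by MiSeq 2 × 250 sequencing and filtered on CDR length. These cells carried a synthetic nanobody library in Saccharomyces cerevisiae BJ5465 and were sorted by FACS into low and high (top ~1%) gates on anti-HA and streptavidin fluorescence. Polyreactivity is labelled according to the gate of origin.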
row,Sequence,polyreactivity (PSR sort gate)
1,QVQLVESGGGLVQAGGSLRLSCAASGFTLDWYAKGWYRQAPGKERELVAAISSSGRTNYADSVKGRFTISRDNAKNTVYLQMNSLKPEDTAVYYCNRDYPYIWHKGARYWHENDYWGQGTQVTVTS,low polyreactivity
2,QVQLVESGGGLVQAGGSLRLSSAASGNNFHFYAMGSYRQAPGKERELVATISWRGDGTYYADSVKGRFTISRDNAKNTVYLQMNSLKPEDTAVYYCAGRGVWPEYDYWGQGTQVNVSS,low polyreactivity
3,QVQLVESGGGLVQAGGSLRLSCAASGSIFGRYAMGWYRQAPGKERELVAAISYSNARTYYADSVKGRFTISRDNAKNTVYLQMNSLKPEDTAVYYCAVLRRYLVGNLVGYNYWGQGTQVTVSS,high polyreactivity
4,QVQLVESGGGLVQAGGSLRLSCAASGSNFDFYAMGWYRQAPGKERELVAAISSSGTSTYYADSVKGRFTISRDNAKNTVYLQMNSLKPEDTAVYYCAAVYSRSGYTWREYGYWGQGTQVTVSS,low polyreactivity
5,QVQLVESGGGLVQAGGSLRLSCAASGRTFRYKAMGWYRQAPGKERELVAAITYSGGITYYADSVKGRFTISRDNAKNTVYLQMNSLKPEDTAVYYCAADDPYRTTYEYDYWGQGTQVTVSS,low polyreactivity
6,QVQLVESGGGLVQAGVSLRLSCAASGSTFTTNVMGWYIQAPGKERELVAAISWSSGSTYYADSVKGRFTISRDNAKNTVYLQMNSLKPEDTAVYYCAARLVIFYPYSRYYYWGQGTQVTVSS,high polyreactivity
7,QVQLVESGGGLVQAGGSLRLSCAASGLILYTYAMGWYRQAPGKERELVAAINSGGRTYYADSVKGRFTISRDNAKNTVYLQMNSLKPEDTAVYYCAADYGSRVRGFNYWGQGTQVTVSS,low polyreactivity
8,QVQLVESRGGLVQAGGSLRLSCAASGSTFKPNAMGWYRPAPGKERELVAAITSGSTYYADSVKGRFTISRDNAKNTVYLQMNSLKPEDTAVYYCATSFRGKSPYRNSGSYYYWGQGTQVTVSS,high polyreactivity
9,QVQLVESGGGLVQAGGSLRLSCAASGSTFPNYPMGWNRQSPGKERELVAAITRSGRSTYYADSVKGRFTISRDNAKNTVYLQMNSLKPEDTGVYYCNAQHLARMDYWGQGTQVTVSS,high polyreactivity
10,QVQLVESGGALVQAGGSLRLSCASSGFIFGVYDMGWYRQAPGKERELVAAIDSVGSTYYADSVKGRFTISRDNAKNTVYLQMNSLKPEDTAVYYCAKDGSYQAYGYWGQGTQVTVSS,low polyreactivity
11,QVLLVESGGGLVQAGGSLRLSCAASGRTFYWYAMGWYRQAPGKERELVAGISSGGGTYYADSVKGRFTISRDNAKNTVYLQMNSLKPEDTAVYYCAAASENIWVWQEYIEYDYWGQGTQVTVSS,low polyreactivity
12,QVQLVESGGGLVQAGGSLRLSCAASGSIFLQYAMGWYRQAPGKERELVAAITTSGRTYYADSVKGRFTISRDNAKYTVYLQMNSLKPEDTAVYYCAATWRYGYYAYYYWGQGTQVTVSS,high polyreactivity
13,QVQLVESGGGLVQAGGSLRLSCAASGITYSYYAMGWYRQAPGKEREFVAAISRTGTSTYYADSVKGRFTISRDNAKNTVYLQMNSLNPEDTADYFCAAVPRHPYHDKYDYWGQGTQVTVSS,high polyreactivity
14,QVQLVESGGGLVQAGGSLRLSCAASGGTLASYAMGRYRQATGKERELVAAITRGGGSTHYADSVKGRFTISRDNAKNTVYLQMNSLKPADTAVYYCNARVRPGYGYWGQGTQVTVSS,high polyreactivity
15,QVQLVESGGGLVQAGGSLRLSCAASGGTFNRYAMGWYRQAPGKERELVAAISNGGGRTYYADSVKGRFTISRDNAKNTVYLQMNSLKPEDTAVYYCAKDLTRTSYRSAFDYWGQGTQVTVSS,high polyreactivity
16,QVQLVESGGGLDQAGGSLRLSCADSGRTFYIYAMGWYRQAPGKERELVAAITSVGSTNYADSVKGRFTISRDNAKNTVYLQMNSLKPEDTAVYYCAAESTEGTSGDYDYWGQGTQVTVSS,low polyreactivity

row,Sequence,polyreactivity (PSR sort gate)
1,QVQHVESGGGLVQAGGSLRLSCAASGRTFLKNAMGWYRHAPVKERELVAAITSGGSTNYADSVKGRFTISRDNAKNTVYIQMNSLKPEDTAVYYCNAPSYWYYPVLGSFLTFDYWGQGTQVTVSS,low polyreactivity
2,QVQLVESGGGLVQAGGSLRLSCAASGSIFAPNAMGWYRQAPGKERELVAAITYGGGRTYYADSVKGRFTISRDNAKNTVYLQMNSLNPEDTAVYYCNALFSVRGYTWRSAAQDMDYWGQGTQVTVSS,high polyreactivity
3,QVQLVESGGGLVQAGGSLRLSCAASGRTLDKYTMGGYRQAPGKERELVASITSGGSTNYADSVKGRFTISRDNAKNTVYLQMNSLKPEDTAVYYCASGNWVLWNPGYDYWGQGTQVTVSS,low polyreactivity
4,QVQLVESGGGLVQAGGSLRLSCAASGSIFRAYAMGWYRQAPGKERELVAAITRGGSTNYADSVKGRFTISRDNAKNNVYLQMKSLKPEDTAVYYCAAQNYWYYPRRFDYWGQGTQVTVSS,high polyreactivity
5,QVQLVESGGGLVQAGGSLRLSSAASGSIFLFYAMGWYRQAPGKERELVATITTGAGSTYYADSVKGRFTISRDNAKNTVFLQMNSLKPEDTAVYYCAATVSYDFGYVAVSYDYWGQGTQVTVSS,low polyreactivity
6,QVQLVDSGGRLVQAGGSLRLSSPASGLIISAYAMGWYRQAPGKEMEFVAAISRSGGITYYADSVKGRFTISRDNAKNTVYLQMNSLKPEDTAVYYCNARLYDPTLKFGYWGQGTQVTVSS,high polyreactivity
7,QVQLVESGGGLVQAGGSLRLSCAASGRTFYRNAMGWYRQAPGKERELVAAISRSGGRTYYADSVKGRFTISRDNAKNTVYLQMNSLKPEDTAVYYCNAQPTLAVADYDYWGQGTQVTVSS,high polyreactivity
8,QVQRVESGGGLVQAGGSLRLSCAASGRTFDGYAMGWYRQAPGKDRELVAAISKRGGSTYYADSVKGRFTISRDNAKNTVYLQMHSLKPEDTAVYYCNTRYFGDQTWVGGDSWGQGTQVTVSS,high polyreactivity
9,QVQLVESGGGLVQAGGSLRLSCAASGSTFIDNTMGWYRQAPGKERELVASIRRSGGSTYYADSVKGRFTISRDNAKNTVYLQMNSLKPEDTAVYYCDVATRYHTTFWYYYWGQGTQVTVSS,high polyreactivity
10,QVQLVESGGGLVQEGGSLRLICAASGGIFIYNAMGWYRQEPGKEREFVAAINISGGNTYYADSVKGRFTISRDNAKNTVYLQMNSLKPEDTAVYYCAARYASSWWIRYYYWGQGTQVSVSS,high polyreactivity
11,QVQLVESGGGLVQAGGSLRLSCAASGSTFVGYAMGWYRQAPGKERELVADITWSGTNTYYADSVKGRFTISRDNAKNTVYLQMNSLKPEDTAVYYCAAELELLLVGFFTYRREYWGQGTQVTVSS,low polyreactivity
12,QVQLVESGAGLVQAGGSLRLCCAASGRIFRSYAMGLYREAPGKERELVAAITWSGGSTYYADSVKGRFTISRDNAKNSVYLQMNSQKPEETAVYYCARVDTKKYSHTGYEYWGQGTQVTVSS,high polyreactivity
13,QVQLVESGGGLVQAGGSLRLSCAASGSTFYVYAMGWYRQAPGKERELGAAIDSGDSTNYADSVKGRVTISRDNAKNTVYLQMNSLKPEDTAVYYCAVGYWDSRYRYDWPNSDYWGQGTQVTVSS,low polyreactivity
14,QVQLVESGGGLVQAGGSLRLSCAASGSIFNSYAMGWSRQAPGKERELVAAISSGGGRTYYADSVKGRFTISRDNAKNTVYLQMNSLKPEDTAVYYCNARAVYRFDYWGQGTQVTVSS,high polyreactivity
15,QVQLVESGGGLVQAGGILRLSCAASGIIFSEYAMGWYRQAPGKERELVAAISKSSGSTRYADSVKGRFTISRDNAKNTVYLQMNSLKPEDTAVYYCAREYRWRYGYDYWGQGTQVTVSS,high polyreactivity
